Data on 3 molecules can be found in publication PMC8109025 (Bioconjugate chemistry, 2020).

For data set [1], the target named is 2N:1E nanobody-enzyme megamolecule (two cutinase-5F7 nanobody fusions covalently linked to one SnapTag-yCD fusion) (yeast). Description: negative-stain transmission electron microscopy.
Data set [2] has the same target. Description: SEC.
For data set [3], the target named is 1N:1E nanobody-enzyme megamolecule (one cutinase-5F7 nanobody fusion covalently linked to one SnapTag-yCD fusion) (yeast). Description: negative-stain transmission electron microscopy.
Data set [4] shares this target. Description: enzyme activity against protein concentration.
Data set [5] shares this target. Put plainly: SEC.
Data set [6] deals with the molecule itself. Description: SEC. Background: Size exclusion chromatography separates by hydrodynamic size, large species first.
Data set [7] deals with the molecule itself. Description: enzyme activity against protein concentration.

In the case of “2N:1E nanobody-enzyme megamolecule (two cutinase-5F7 nanobody fusions covalently linked to one SnapTag-yCD fusion)”, the stoichiometry N in data set [1] and in data set [2] was 2 in each case.

On to “1N:1E nanobody-enzyme megamolecule (one cutinase-5F7 nanobody fusion covalently linked to one SnapTag-yCD fusion)”, for which the stoichiometry N in data set [3] and in data set [5] was 2 in each case. Moreover, the Kd in data set [4] was determined as 38 µM.

B1: SnapTag-yeast cytosine deaminase fusion protein (enzyme, UniProt Q12178 1-158, looked up)
chain: MVTGGMASKWDQKGMDIAYEEAALGYKEGGVPIGGCLINNKDGSVLGRGHNMRFQKGSATLHGEISTLENCGRLEGKVYKDTTLYTTLSPCDMCTGAIIMYGIPRCVVGENVNFKSKGEKYLQTRGHEVVVVDDERCKKIMKQFIDERPQDWFEDIGE
With B1, the “stoichiometry N” value in data set [6] is 2. The same molecule displayed a Kd in data set [7] of 12 µM.

A word on the stoichiometry N: it is a count of units in the complex or per binding partner. What is called Kd is the constant that tells how readily two partners part at equilibrium. A lower Kd goes with higher affinity.
